Experimental data taken from patent US20060018911A1.

Columns and labels:
[1] = biological target: purified IgM antibody (38C13); assay: antibody microarray, printed S1C5, goat anti-mouse IgM HRP chemiluminescence
[2] = biological target: 38C13 IgM in 38C13 cell extract; assay: antibody microarray, printed S1C5, cell extract, goat anti-mouse IgM HRP chemiluminescence

“S1C5 anti-idiotype monoclonal antibody (anti-IgM antibody)” showed a lowest IgM concentration giving signal [1] of 0.1 µg/mL, a lowest spotted antibody concentration giving signal [1] of 25 µg/mL and a highest extract dilution giving signal (fold dilution (1:x)) [2] of 2000. The lowest printed antibody concentration giving signal [2] was 50 µg/mL.
